Target: T1, B7330N-myc (myc-tagged B7330N expressed from pcDNA3.1-B7330N-myc in COS-7 cells) (human, UniProt Q8NCL4 1-622)
T1 construct: Expressed by transfection in COS-7 cells and tested in cell lysates; also called GALNT6; not shown: myc-his tag from the pcDNA3.1-myc-his vector (Invitrogen)
T1 sequence: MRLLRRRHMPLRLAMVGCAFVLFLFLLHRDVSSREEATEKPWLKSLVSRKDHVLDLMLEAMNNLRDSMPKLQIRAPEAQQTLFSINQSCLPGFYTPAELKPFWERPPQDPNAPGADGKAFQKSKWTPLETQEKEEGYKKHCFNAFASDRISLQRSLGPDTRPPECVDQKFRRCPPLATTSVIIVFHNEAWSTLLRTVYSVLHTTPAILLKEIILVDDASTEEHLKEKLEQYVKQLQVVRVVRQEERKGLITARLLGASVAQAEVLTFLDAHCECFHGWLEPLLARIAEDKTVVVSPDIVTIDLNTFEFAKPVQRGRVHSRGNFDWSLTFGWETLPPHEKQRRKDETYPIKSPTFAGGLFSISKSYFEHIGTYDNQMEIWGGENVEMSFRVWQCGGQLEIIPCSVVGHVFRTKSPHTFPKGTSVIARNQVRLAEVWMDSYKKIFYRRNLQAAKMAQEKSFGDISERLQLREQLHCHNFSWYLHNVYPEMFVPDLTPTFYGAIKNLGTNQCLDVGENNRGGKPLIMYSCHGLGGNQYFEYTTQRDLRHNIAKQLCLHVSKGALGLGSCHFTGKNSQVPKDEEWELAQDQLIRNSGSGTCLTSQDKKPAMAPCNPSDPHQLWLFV
Assay: co-immunoprecipitation from co-transfected COS-7 cells, anti-myc pull-down
Excerpt: To investigate that hypothesis, we designed two kinds of tagged-B7330N constructs to examine homo-oligomerization. pCAGGS-B7330N-HA and pcDNA3.1-B7330N-myc were co-transfected into COS-7 cells and co-immunoprecipitated using anti-HA or anti-myc antibody, respectively.

B1: B7330N-HA (HA-tagged B7330N expressed from pCAGGS-B7330N-HA in COS-7 cells) (enzyme)
chain: T1 sequence
modifications: N-glycosylated at Asn-476
notes: Expressed by transfection in COS-7 cells and tested in cell lysates; also called GALNT6; UDP-N-acetyl-alpha-D-galactosamine: polypeptide N-acetylgalactosaminyltransferase 6; not shown: C-terminal HA tag from the pCAGGS-HA vector
  binding result: binds

— US20090202543A1 (ONCOTHERAPY SCIENCE, published 2009)
